Measurements published in article PMC5392361 (Nature chemical biology, 2017).
One block for each binder: values may come before it.

Legend:
Rrp4-exosome WT = target: T1, Rrp4-exosome WT (Sulfolobus solfataricus, UniProt Q9UXC4;Q9UXC2;Q9UXC0 1-249;1-248;1-275); assay: fluorescence anisotropy
T1 sequence 1: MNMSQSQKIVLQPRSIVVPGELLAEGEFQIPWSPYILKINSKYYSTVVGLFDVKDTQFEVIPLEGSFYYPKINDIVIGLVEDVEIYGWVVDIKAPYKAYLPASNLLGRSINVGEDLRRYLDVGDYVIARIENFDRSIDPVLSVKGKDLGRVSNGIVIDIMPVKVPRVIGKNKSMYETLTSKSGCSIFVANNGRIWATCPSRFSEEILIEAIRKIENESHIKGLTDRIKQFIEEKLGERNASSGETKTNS
T1 sequence 2: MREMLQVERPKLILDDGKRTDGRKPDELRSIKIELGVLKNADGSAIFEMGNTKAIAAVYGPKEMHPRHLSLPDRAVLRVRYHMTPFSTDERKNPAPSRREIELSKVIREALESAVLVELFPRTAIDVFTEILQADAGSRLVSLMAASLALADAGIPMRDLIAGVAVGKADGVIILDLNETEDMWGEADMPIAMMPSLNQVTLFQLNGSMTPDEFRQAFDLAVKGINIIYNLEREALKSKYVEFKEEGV
T1 sequence 3: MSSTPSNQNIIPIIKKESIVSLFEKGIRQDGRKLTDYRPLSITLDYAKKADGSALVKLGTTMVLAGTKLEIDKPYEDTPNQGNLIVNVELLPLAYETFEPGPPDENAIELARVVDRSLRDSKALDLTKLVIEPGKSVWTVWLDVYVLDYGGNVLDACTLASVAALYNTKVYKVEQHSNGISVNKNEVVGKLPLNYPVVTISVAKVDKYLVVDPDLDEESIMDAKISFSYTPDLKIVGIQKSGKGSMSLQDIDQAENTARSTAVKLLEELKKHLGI

[1] = target: T2, Sulfolobus solfataricus Rrp41-Rrp42 exosome core (Sulfolobus solfataricus, UniProt Q9UXC2 1-248; Q9UXC0 1-275); assay: pull-down
T2 sequence 1: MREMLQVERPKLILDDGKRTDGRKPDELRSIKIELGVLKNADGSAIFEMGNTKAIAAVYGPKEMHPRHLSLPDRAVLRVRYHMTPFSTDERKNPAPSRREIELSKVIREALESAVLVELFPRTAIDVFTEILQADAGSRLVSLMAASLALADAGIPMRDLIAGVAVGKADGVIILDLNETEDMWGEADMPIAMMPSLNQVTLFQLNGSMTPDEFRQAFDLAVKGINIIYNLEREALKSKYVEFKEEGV
T2 sequence 2: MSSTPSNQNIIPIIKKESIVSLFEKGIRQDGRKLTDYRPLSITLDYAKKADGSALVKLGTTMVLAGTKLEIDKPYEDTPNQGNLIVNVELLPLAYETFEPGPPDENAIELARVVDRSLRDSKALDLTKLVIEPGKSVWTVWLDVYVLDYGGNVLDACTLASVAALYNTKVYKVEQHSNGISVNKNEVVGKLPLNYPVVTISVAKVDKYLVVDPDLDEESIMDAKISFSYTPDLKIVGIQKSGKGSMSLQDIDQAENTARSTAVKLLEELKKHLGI

[2] = target: T3, Rrp4-exosome, Rrp4 KNK170ENQ (Sulfolobus solfataricus, UniProt Q9UXC4;Q9UXC2;Q9UXC0 1-249;1-248;1-275, M1S;M3S;K170E;K172Q); assay: NMR line-shape titration
T3 sequence 1: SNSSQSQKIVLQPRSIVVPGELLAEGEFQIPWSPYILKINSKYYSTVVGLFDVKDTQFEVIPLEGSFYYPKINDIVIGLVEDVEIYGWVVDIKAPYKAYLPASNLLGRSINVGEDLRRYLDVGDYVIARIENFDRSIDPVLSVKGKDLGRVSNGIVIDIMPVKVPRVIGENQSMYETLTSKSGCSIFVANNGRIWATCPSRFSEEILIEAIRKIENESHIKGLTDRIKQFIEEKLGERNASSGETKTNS
T3 sequence 2: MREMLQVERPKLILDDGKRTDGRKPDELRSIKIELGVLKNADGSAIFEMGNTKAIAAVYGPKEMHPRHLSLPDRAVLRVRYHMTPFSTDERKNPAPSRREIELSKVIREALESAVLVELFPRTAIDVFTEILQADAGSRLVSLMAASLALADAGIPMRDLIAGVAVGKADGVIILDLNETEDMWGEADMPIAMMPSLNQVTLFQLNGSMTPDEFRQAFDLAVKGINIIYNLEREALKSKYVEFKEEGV
T3 sequence 3: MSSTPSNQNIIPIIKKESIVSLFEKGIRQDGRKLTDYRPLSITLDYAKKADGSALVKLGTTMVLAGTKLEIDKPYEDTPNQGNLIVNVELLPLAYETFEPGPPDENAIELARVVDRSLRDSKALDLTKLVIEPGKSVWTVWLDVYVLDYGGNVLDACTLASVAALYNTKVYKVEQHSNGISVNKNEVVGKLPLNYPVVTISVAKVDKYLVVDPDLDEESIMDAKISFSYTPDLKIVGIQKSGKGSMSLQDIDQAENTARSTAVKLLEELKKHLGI

[3] = target: T4, Rrp4-exosome, Rrp4 3MS K38M (Sulfolobus solfataricus, UniProt Q9UXC4;Q9UXC2;Q9UXC0 1-249;1-248;1-275, M1S;M3S;K38M); assay: NMR methyl TROSY CSP
T4 sequence 1: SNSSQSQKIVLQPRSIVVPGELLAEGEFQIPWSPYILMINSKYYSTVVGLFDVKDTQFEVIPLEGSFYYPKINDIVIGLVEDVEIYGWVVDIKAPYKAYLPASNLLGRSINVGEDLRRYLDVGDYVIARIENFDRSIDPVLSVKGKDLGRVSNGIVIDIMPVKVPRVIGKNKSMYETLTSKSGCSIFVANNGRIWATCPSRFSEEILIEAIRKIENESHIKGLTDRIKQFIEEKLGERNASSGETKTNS
T4 sequence 2: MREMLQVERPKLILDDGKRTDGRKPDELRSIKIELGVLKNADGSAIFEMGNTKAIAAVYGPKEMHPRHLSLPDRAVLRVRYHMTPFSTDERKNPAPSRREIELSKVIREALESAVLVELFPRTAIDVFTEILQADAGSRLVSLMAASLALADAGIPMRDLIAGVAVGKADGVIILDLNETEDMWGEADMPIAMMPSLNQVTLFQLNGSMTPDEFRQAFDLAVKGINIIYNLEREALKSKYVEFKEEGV
T4 sequence 3: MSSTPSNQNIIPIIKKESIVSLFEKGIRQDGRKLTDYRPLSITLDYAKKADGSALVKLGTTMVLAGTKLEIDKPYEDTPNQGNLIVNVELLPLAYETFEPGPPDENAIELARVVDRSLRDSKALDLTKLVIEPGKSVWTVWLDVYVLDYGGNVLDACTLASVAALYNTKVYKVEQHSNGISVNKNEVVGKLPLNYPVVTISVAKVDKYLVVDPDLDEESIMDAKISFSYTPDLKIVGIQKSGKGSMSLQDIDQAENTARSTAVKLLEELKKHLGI

[4] = target: T5, Rrp4-exosome, Rrp4 3MS N171M (Sulfolobus solfataricus, UniProt Q9UXC4;Q9UXC2;Q9UXC0 1-249;1-248;1-275, M1S;M3S;N171M); assay: NMR methyl TROSY CSP
T5 sequence 1: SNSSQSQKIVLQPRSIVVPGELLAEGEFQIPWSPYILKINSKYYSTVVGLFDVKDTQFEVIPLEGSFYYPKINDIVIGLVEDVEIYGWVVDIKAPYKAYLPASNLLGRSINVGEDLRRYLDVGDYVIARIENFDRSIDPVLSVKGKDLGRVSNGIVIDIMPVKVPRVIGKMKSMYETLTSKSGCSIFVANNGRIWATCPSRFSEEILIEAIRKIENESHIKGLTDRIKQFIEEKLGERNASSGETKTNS
T5 sequence 2: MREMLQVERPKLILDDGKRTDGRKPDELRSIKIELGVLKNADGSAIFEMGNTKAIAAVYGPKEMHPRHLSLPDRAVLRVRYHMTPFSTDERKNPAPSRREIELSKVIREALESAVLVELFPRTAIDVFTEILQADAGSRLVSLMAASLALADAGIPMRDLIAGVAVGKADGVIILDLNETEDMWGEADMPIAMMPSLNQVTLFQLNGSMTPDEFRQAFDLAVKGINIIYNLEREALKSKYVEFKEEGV
T5 sequence 3: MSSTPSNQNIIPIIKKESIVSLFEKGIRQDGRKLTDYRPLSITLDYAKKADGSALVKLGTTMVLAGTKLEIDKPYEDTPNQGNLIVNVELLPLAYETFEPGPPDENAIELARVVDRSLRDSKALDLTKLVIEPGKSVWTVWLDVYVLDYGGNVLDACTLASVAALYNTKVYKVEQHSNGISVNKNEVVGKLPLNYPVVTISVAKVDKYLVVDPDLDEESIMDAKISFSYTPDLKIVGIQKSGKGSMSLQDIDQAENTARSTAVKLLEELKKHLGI

B1: long RNA (4-thio-U, fluorescein) (structured_RNA)
RNA: GCCCCCCCCGAAAGGGGGGGGAAAAAAAAAAAAAAAAAAAAAUAAAAAAAAAAAGCU
modifications: 4-thiouridine at the single U within the A tail (written U)
Kd (Rrp4-exosome WT): 0.0675 ± 0.0227 µM

binding result [1]: binds
B2: Sulfolobus solfataricus Rrp4 exosome cap protein (natural protein, UniProt Q9UXC4 1-249, looked up)
chain: MNMSQSQKIVLQPRSIVVPGELLAEGEFQIPWSPYILKINSKYYSTVVGLFDVKDTQFEVIPLEGSFYYPKINDIVIGLVEDVEIYGWVVDIKAPYKAYLPASNLLGRSINVGEDLRRYLDVGDYVIARIENFDRSIDPVLSVKGKDLGRVSNGIVIDIMPVKVPRVIGKNKSMYETLTSKSGCSIFVANNGRIWATCPSRFSEEILIEAIRKIENESHIKGLTDRIKQFIEEKLGERNASSGETKTNS

B3: NMR substrate RNA (hairpin-A32, cyclic phosphate) (structured_RNA)
RNA: GCCCCCCCCGAAAGGGGGGGGAAAAAAAAAAAAAAAAAAAAAAAAAAAAAAAA
modifications: 2'-3' cyclic phosphate at 3' end
Kd [2]: 60.5 ± 4.6 µM | binding result [3]: binds | binding result [4]: binds
